Experimental data reported in the DeepSol protein solubility set.

test: soluble on expression in E. coli; label from the status in PepcDB or PDB records

Sequence	soluble on expression in E. coli
MGSDKIHHHHHHMKPRACVVVYPGSNCDRDAYHALEINGFEPSYVGLDDKLDDYELIILPGGFSYGDYLRPGAVAAREKIAFEIAKAAERGKLIMGICNGFQILIEMGLLKGALLQNSSGKFICKWVDLIVENNDTPFTNAFEKGEKIRIPIAHGFGRYVKIDDVNVVLRYVKDVNGSDERIAGVLNESGNVFGLMPHPERAVEELIGGEDGKKVFQSILNYLKR	not soluble
MGVVRRGSDVTSHVSSVSGKSAPCLQHFSVIRSIGRGAFGKVCIVQERKTKKYFALKYMNKRRCIEKGVAANVIRELTLLSKMSHPFIVNLWYTFQDGDYMYMVSDLLLGGDLRYHLSQQGKFAEDRAKLYLCEICLAVEYLHEMKIVHRDIKPENILLDEQGHAHLTDLNLATQLEDDQLATSYSGTRPYMAPEIYATYLEIEDGYDSRVDWWALGVCFYEMLRGRTPFEFSSRTKPEEAYVAFRESSIPYPAHWPTDLIQFINSMLKFDKEKRLVGLEAIKKHSYTERIDFKSVFEKKPSPVFIPCKEGLNCDPMYELEERILVSTPIHRRRTNHNNSSGRSSSEPQNAALVEVSKAFIDFSRHNVKIEPNGFVKLN	not soluble
MGHAKHLIDGNIETFWHSRWQGGSDPLPYEIIIDMNHRVKIAQIELLPRGRGSNNPIKVVRFEASEDGTNWESIGQFGFTNQDAALKYYVKSSTARYIKLVIPDGVGNGTVAAIRELDVRGTVVNLEHHHHHH	not soluble
MLKIFNTLTRQKEEFKPIHAGEVGMYVCGITVYDLCHIGHGRTFVAFDVVARYLRFLGYKLKYVRNITDIDDKIIKRANENGESFVAMVDRMIAEMHKDFDALNILRPDMEPRATHHIAEIIELTEQLIAKGHAYVADNGDVMFDVPTDPTYGVLSRQDLDQLQAGARVDVVDDKRNPMDFVLWKMSKEGEPSWPSPWGAGRPGWHIECSAMNCKQLGNHFDIHGGGSDLMFPHHENEIAQSTCAHDGQYVNYWMHSGMVMVDREKMSKSLGNFFTVRDVLKYYDAETVRYFLMSGHYRSQLNYSEENLKQARAALERLYTALRGTDKTVAPAGGEAFEARFIEAMDDDFNTPEAYSVLFDMAREVNRLKAEDMAAANAMASHLRKLSAVLGLLEQEPEAFLQSGAQADDSEVAEIEALIQQRLDARKAKDWAAADAARDRLNEMGIVLEDGPQGTTWRRK	soluble
MVNREIVMDYILSCLQDLVENGVEIKPDSDLVNDLGLESIKVMDLLMMLEDRFDISIPINILLDVKTPAQLMETLLPWLENK	not soluble
MDERRFFRDVCAEWMEQYRLTVRESTLEKTQRIINIHVLPAFGDMVINNITPNVCQKVVNKWFLEAKSYKKWLNYASMIFDYALRAEYVGRNPCTLVTMPRVQEQAGEKLEHHHHHH	not soluble
MGHHHHHHSHMEPRVTQRKRPLDGCMGKITGITSDILKYDHKCFKLSLPAKFPEVCGSDEVFPDPDLLHVLPVAGSLQQSIDQCCLQLESLCRPGLLCAHPTLLFKLHSSMKNRPFFSLIYTYVKKTQQVRKRDRKPRGQVAAGPNPTSVM	not soluble
MKKLAFAVTVASGAAAVIANHEADASTQHTVKSGESLWSISQQYGVSVDEIKQSNDINNNMVFPGQVIEIGGSSSQESGSTSNNTSNGSSHTVQSGESLNIIANQYGVSVDEIIAANNLNGYLIHPNQTLTIPGTTGTGGSGGTATETPSSNTGGSTASDANLYDWGQCTWHVFNRRAETGQPISTYWWNADHWANNASADGYTVNNAPTAGSIMQNYEGPVGHVAYVERVNPDGSILISEMNYNTPPGTVDYRTIPASQASSYNYIHLEHHHHHH	not soluble
MKIDKYSAILGNTVGFHNMSTLTDHRPVASLPFGGKYRLIDFPLSSLANAGVRSVFGIFQQDNISSVFDHIRSGREWGLSTLLSHYYLGIYNTRVESSTVGKEYYQQLLTYLKRSGSNQTVALNCDVLINIDLNQVFHLHSTTKEPITVVYKKLAKKDISEVNAILDVDETDHVLSHKLFDSKSTAETFNMSTDIFVVDTPWLIEHLEEEAKKEHPEKLRYVLRDLAVKEGAFAYEYTGYLANIHSVKSYYQANIDMLESQKFYSLFSPNQKIYTKVKNEEPTYYANTSKVSTSQFASGSIIEGQVANSVLSRNIHVHKDSLVKDSLLFPRVVIGEGAQVEYAILDKGVEVEHGVVIRGTAEHPVVVKKGAKVTEDIHS	not soluble
LSAQEIIQYISDAKKSTPLKVYVNGHFENVTFPESFKVFGSEHSKVIFCEANEWKQFYQQNHSLITELEIEMDRRNSAIPLKDLTNTN	soluble
PDLIYYRNADGVFSGCNRAMEELTGKKEHQLVGLSPWDVYSKEIAQPIVDTDQKVFSDNQAITYEQWLEYPDGRKHYFELRKVPFYSKD	not soluble
MNSFVLMATVIREPELRFTKENQTPVCEFLVEFPGMRDDSPKESLKVVGWGNLANTIKETYHPGDRLIIEGRLGMNMIERQEGFKEKRAELTASRISLVDSGNGINPGELSSPPEPEAVDLSNTDDIPFLEHHHHHH	soluble
GMLPRLCCLEKGPNGYGFHLHGEKGKLGQYIRLVEPGSPAEKAGLLAGDRLVEVNGENVEKETHQQVVSRIRAALNAVRLLVVDPEEDSFL	soluble
MAHHHHHHSLRLKEQSLQVTTKTGKESQKKTQTTAKSTITVDIKGAVKHEGVYTLPIDSRINDVIEKAGGFSEKADRKSVNLAQKLQDEAVIYVAAIGENISVIRDSQEGKTSQADKANTKETSVKGKVNLNTATLADLQTISGIGEKKAQDILDYREANGGFKSVDDLKNISGIGDKTFEKLKDLVSVDEG	soluble
MAEDSNSSESIIVNVTGDDNKSALFGKYDLGKLLGSGAFAKVYQAEDLQNGGESVAIKVVQKKRLKDGLTAHVKREISVMRRLRHPHIVLLSEVLATKTKIYFVMELAKGGELFSRVTSNRFTESLSRKYFRQLISAVRYCHARGVFHRDLKPENLLLDENRDLKVSDFGLSAMKEQIHPDGMLHTLCGTPAYVAPELLLKKGYDGSKADIWSCGVVLFLLNAGYLPFRDPNIMGLYRKIHKAQYKLPDWTSSDLRKLLRRLLEPNPELRITVEEILKDPWFNHGVDPSEIIGIQADDYDLEENGKILNAFDLISSASSSNLSGLFGNFVTPDHCDQFVSDESTAVIMRKVEEVAKQLNLRIAKKKERAIKLEGPHGVANVVVKVRRLTNELVMVEMKNKQRDVGLVWADALRQKLRRLINQPVYKVPDKP	not soluble
MALQLGRLSSGPCWLVARGGCGGPRAWSQCGGGGLRAWSQRSAAGRVCRPPGPAGTEQSRGLGHGSTSRGGPWVGTGLAAALAGLVGLATAAFGHVQRAEMLPKTSGTRATSLGRPEEEEDELAHRCSSFMAPPVTDLGELRRRPGDMKTKMELLILETQAQVCQALAQVDGGANFSVDRWERKEGGGGISCVLQDGCVFEKAGVSISVVHGNLSEEAAKQMRSRGKVLKTKDGKLPFCAMGVSSVIHPKNPHAPTIHFNYRYFEVEEADGNKQWWFGGGCDLTPTYLNQEDAVHFHRTLKEACDQHGPDLYPKFKKWCDDYFFIAHRGERRGIGGIFFDDLDSPSKEEVFRFVQSCARAVVPSYIPLVKKHCDDSFTPQEKLWQQLRRGRYVEFNLLYDRGTKFGLFTPGSRIESILMSLPLTARWEYMHSPSENSKEAEILEVLRHPRDWVR	not soluble
MTLIPPVQAIAGTSAAATQALSPVATPNQALVNRFQALMQSSSPLPPAMQRVGNPSMMSRVVDVQNDGVRTIAEHIDAFSMQAPTMGLQEMAAQQIKLMHELTMVGFNLNVSVGVAQSGKNAVQTLVKNQ	not soluble
MIDLLQADGNALPSAVKLAYSPASKTFESYRVMTQVHTNDATKKVIVKLADTPQLTDVLNSTVQMPISVSWGGQVLSTTAKEFEAAALGYSASGVNGVSSSQELVISAAPKTAGTAPTAGNYSGVVSLVMTLGSDNKQVEKNITVTASVDPVIDLLQADGNALPSAVKLAYSPASKTFESYRVMTQVHTNDATKKVIVKLADTPQLTDVLNSTVQMPISVSWGGQVLSTTAKEFEAAALGYSASGVNGVSSSQELVISAAPKTAGTAPTAGNYSGVVSLVMTLGSDNKQVEKNITVTASVDPVIDLLQADGNALPSAVKLAYSPASKTFESYRVMTQVHTNDATKKVIVKLADTPQLTDVLNSTVQMPISVSWGGQVLSTTAKEFEAAALGYSASGVNGVSSSQELVISAAPKTAGTAPTAGNYSGVVSLVMTLGSDNKQVEKNITVTASVDPVILEHHHHHH	soluble
